Laboratory results taken from patent US20220073596A1 (CITRYLL B V, published 2022).
Where no end group is shown, it is not given here. [ ]: non-standard residue; d: D form. Cit = NC(=O)NCCC[C@H](N)C(=O)O

Experiments:
[1] = biological target: T1, Arginine containing control peptide of Histone H2A N-terminus (SEQ ID NO: 3), SGRGKQGGKARA (free N-terminal NH2 group); test: peptide ELISA
T1 construct: Control peptide with arginine in place of citrulline
T1 peptide: SGRGKQGGKARA

[2] = biological target: T2, N-terminal citrullinated peptide of Histone H2A (SEQ ID NO: 1), SGCitGKQGGKARA (also: biotin, place not given here); test: peptide ELISA, biotin peptide on neutravidin
T2 peptide: SG[Cit]GKQGGKARA
Protocol: Optical density was measured by 450 nm and is a measure for the affinity of the antibodies used.

- binding result [1]: no binding
- binding result [2]: binds
B1: Mouse monoclonal antibody Rmmab22.101 (antibody, V domains shown)
VH: RIQLVQSGPELKKPGEAVKISCKASGYTFTNYGMHWMKQTPGKDFRWMGWINTYSGEATYVDDFKGRFAFSLGTSASTAYLQINNLKNDDTATYFCLRGYTYQSFDEGGDYWGQGTALTVSS
VL: not shown
notes: Mouse monoclonal from hybridoma DSMZ ACC 3031; also called MQ22.101
